# T1: GST-ZAKα 701-800 (Homo sapiens, UniProt Q9NYL2 701-800)
# T1 sequence: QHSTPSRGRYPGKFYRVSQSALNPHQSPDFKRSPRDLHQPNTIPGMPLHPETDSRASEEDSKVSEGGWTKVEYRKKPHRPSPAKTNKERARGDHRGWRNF
# Molecular target: T1, GST-ZAKα 701-800
# Test: EMSA; supershift with GST antibody; EMSA: 20 mM HEPES pH 7.6, 3 mM MgCl2, 40 mM KCl, 5% glycerol, 2 mM DTT, 100 fmol probe in 20 µl, 20 min on ice; 4% native PAGE, 0.25x TBE
# Details: protein: recombinant; tags: GST; label: 5'-IRDye700; single strand, seemingly unstructured
binder,measurement,value
AGCUUAGGAAUAUCAAUGUUAAGUAG (ssRNA) [ARE-IRDye700],binding result,binds
